The assay concerns the target C3d, P01024. Put plainly: SPR, 0.5 µM FH with anti-FH.07 Fab′ (2 to 1 molar ratio) over immobilised C3d. Conditions: remark: other sources report otherwise. In general terms: In SPR one partner is held on a chip, and binding of the other changes the refractive index at the surface.

Our source for the fold increase of the measured interactions (RU) with anti-FH.07 Fab′ against FH alone values is patent US20190194304A1.

C3d, P01024, sequence (P01024 1002-1303 limits assumed): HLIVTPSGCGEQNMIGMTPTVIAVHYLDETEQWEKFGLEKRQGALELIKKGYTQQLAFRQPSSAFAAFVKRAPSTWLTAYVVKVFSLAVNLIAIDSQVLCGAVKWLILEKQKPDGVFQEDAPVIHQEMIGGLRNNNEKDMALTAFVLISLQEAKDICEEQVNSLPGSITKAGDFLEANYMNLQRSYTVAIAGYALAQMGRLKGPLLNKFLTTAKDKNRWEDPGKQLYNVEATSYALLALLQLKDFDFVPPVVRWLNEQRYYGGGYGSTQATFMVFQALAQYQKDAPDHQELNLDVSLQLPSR

B1: human factor H, P08603 19-1231 (protein, UniProt P08603 19-1231, looked up)
chain: EDCNELPPRRNTEILTGSWSDQTYPEGTQAIYKCRPGYRSLGNVIMVCRKGEWVALNPLRKCQKRPCGHPGDTPFGTFTLTGGNVFEYGVKAVYTCNEGYQLLGEINYRECDTDGWTNDIPICEVVKCLPVTAPENGKIVSSAMEPDREYHFGQAVRFVCNSGYKIEGDEEMHCSDDGFWSKEKPKCVEISCKSPDVINGSPISQKIIYKENERFQYKCNMGYEYSERGDAVCTESGWRPLPSCEEKSCDNPYIPNGDYSPLRIKHRTGDEITYQCRNGFYPATRGNTAKCTSTGWIPAPRCTLKPCDYPDIKHGGLYHENMRRPYFPVAVGKYYSYYCDEHFETPSGSYWDHIHCTQDGWSPAVPCLRKCYFPYLENGYNQNYGRKFVQGKSIDVACHPGYALPKAQTTVTCMENGWSPTPRCIRVKTCSKSSIDIENGFISESQYTYALKEKAKYQCKLGYVTADGETSGSITCGKDGWSAQPTCIKSCDIPVFMNARTKNDFTWFKLNDTLDYECHDGYESNTGSTTGSIVCGYNGWSDLPICYERECELPKIDVHLVPDRKKDQYKVGEVLKFSCKPGFTIVGPNSVQCYHFGLSPDLPICKEQVQSCGPPPELLNGNVKEKTKEEYGHSEVVEYYCNPRFLMKGPNKIQCVDGEWTTLPVCIVEESTCGDIPELEHGWAQLSSPPYYYGDSVEFNCSESFTMIGHRSITCIHGVWTQLPQCVAIDKLKKCKSSNLIILEEHLKNKKEFDHNSNIRYRCRGKEGWIHTVCINGRWDPEVNCSMAQIQLCPPPPQIPNSHNMTTTLNYRDGEKVSVLCQENYLIQEGEEITCKDGRWQSIPLCVEKIPCSQPPQIEHGTINSSRSSQESYAHGTKLSYTCEGGFRISEENETTCYMGKWSSPPQCEGLPCKSPPEISHGVVAHMSDSYQYGEEVTYKCFEGFGIDGPAIAKCLGEKWSHPPSCIKTDCLSLPSFENAIPMGEKKDVYKAGEQVTYTCATYYKMDGASNVTCINSRWTGRPTCRDTSCVNPPTVQNAYIVSRQMSKYPSGERVRYQCRSPYEMFGDEEVMCLNGNWTEPPQCKDSTGKCGPPPPIDNGDITSFPLSVYAPASSVEYQCQNLYQLEGNKRITCRNGQWSEPPKCLHPCVISREIMENYNIALRWTAKQKLYSRTGESVEFVCKRGYRLSSRSHTLRTTCWDGKLEYPTCAKR
B1: the fold increase of the measured interactions (RU) with anti-FH.07 Fab′ against FH alone was above 2 fold.
